T1: Yfr024 SH3 (LSB3_YEAST), P43603
T1 chain: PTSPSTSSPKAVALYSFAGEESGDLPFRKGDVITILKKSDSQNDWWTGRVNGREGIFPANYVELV

T2: Yhr016c SH3 (YSC84_YEAST), P32793
T2 chain: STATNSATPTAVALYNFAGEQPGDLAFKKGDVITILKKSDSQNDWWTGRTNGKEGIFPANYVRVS

T3: Rvs167 SH3 (RV167_YEAST), P39743
T3 chain: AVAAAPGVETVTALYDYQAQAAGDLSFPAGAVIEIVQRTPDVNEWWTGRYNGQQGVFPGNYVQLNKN

T4: Boi2 SH3 (BOI2_YEAST), P39969
T4 chain: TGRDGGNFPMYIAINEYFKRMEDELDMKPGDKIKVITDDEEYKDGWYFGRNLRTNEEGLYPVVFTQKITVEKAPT

T5: Boi1 SH3 (BOI1_YEAST), P38041
T5 chain: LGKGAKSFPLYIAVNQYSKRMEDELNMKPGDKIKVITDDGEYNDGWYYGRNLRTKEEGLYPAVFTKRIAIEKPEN


Assays:
Assay in all cases: SPOT array
[1] = molecular target: T1, Yfr024 SH3 (LSB3_YEAST), P43603
[2] = molecular target: T2, Yhr016c SH3 (YSC84_YEAST), P32793
[3] = molecular target: T3, Rvs167 SH3 (RV167_YEAST), P39743
[4] = molecular target: T4, Boi2 SH3 (BOI2_YEAST), P39969
[5] = molecular target: T5, Boi1 SH3 (BOI1_YEAST), P38041

Binder | normalised SPOT signal, Boehringer light units (BLU); mean over the file's lines of this peptide [1] | normalised SPOT signal, Boehringer light units (BLU); mean over the file's lines of this peptide [2] | normalised SPOT signal, Boehringer light units (BLU); mean over the file's lines of this peptide [3] | normalised SPOT signal, Boehringer light units (BLU); mean over the file's lines of this peptide [4] | normalised SPOT signal, Boehringer light units (BLU); mean over the file's lines of this peptide [5]
EKLPETPDRSKSAS [YLR343W 379-392] | 12200 | 5560 | 67.1 | 69.2 | 69.3
ELDPISPLKVPLTA [YGR166W 276-289] | 42.4 | 160 | 39.4 | 46 | 56.8
ELEPQHPLRHKSSL [YER027C 53-66] | 109 | 333 | 38.4 | 60 | 65.2
ELLPVVPEKFLIAS [YOR273C 415-428] | 13.7 | 149 | 15.1 | 13.5 | 90.2
ELPPIKPPRPTSTT [YBL007C 619-632] | 57000 | 43100 | 1900 | 90.2 | 54.9
ELPPTHPIRLGLAL [YDR099W 164-177] | 179 | 203 | 24.8 | 46.1 | 77.1
EMIPSSPQRKSVSN [YBR098W 51-64] | 2140 | 323 | 220 | 37.3 | 59
ENAPANPSKALKVK [YHR108W 549-562] | 34.4 | 209 | 68 | 34.7 | 21.4
ENFPIVPLKSVAQD [YAL051W 638-651] | 377 | 100 | 125 | 9.5 | 94
ENKPFKPPRRVGSN [YBR073W 41-54] | 23100 | 8330 | 232 | 3.6 | 339
ENLPPSPVRAVNPL [YPR174C 153-166] | 156 | 0 | 28.7 | 42.8 | 85
ENVPLYPSRRNIWE [YHR176W 81-94] | 15000 | 4510 | 88.9 | 19.2 | 764
ENYPSPPYKIIILD [YJR068W 127-140] | 56.9 | 86.3 | 35.7 | 34.9 | 160
ERDPNAPKKPLTVF [YDR174W 100-113] | 94.1 | 274 | 59.7 | 34.6 | 75.6
ERDPNMPKRPTNAY [YDL002C 88-101] | 1640 | 339 | 64.8 | 31.7 | 125
ESLPRTPTKGRSTQ [YPR141C 2-15] | 2200 | 211 | 34.8 | 26.1 | 455
ETVPTEPTRYNYQN [YER132C 1359-1372] | 24.9 | 53.7 | 26.9 | 55.5 | 112

— PMC314469, “Protein Interaction Networks by Proteome Peptide Scanning” (PLoS Biology, 2004)
